Results: patent US20240327495A1 (OXFORD UNIVERSITY INNOVATION, published 2024)

Legend:
[1] = biological target: T1, C. difficile toxin B glucosyltransferase domain (GTD, residues 2-543) (Clostridium difficile, UniProt P18177 2-543); test: SPR, immobilised GTD
T1 construct: range 2-543; also called AviTag-His6-GTD; TcdB GTD

[2] = biological target: T1, C. difficile toxin B …; test: SPR, immobilised GTD; remark: listed apart in the source
[3] = biological target: T2, combined repetitive oligopeptide domain of C. difficile toxin A (residues 2304-2710, CROP) (Clostridium difficile, UniProt P16154 2304-2710); test: SPR, equilibrium analysis, biotinylated AviTag-His6-CROP captured on the chip
T2 construct: range 2304-2710; also called AviTag-His6-CROP; TcdA CROP

[4] = biological target: T1, C. difficile toxin B …; test: ELISA on antigen-coated wells, anti-SBTI antibody detection
hen egg lysozyme (HEL) = hen egg lysozyme (HEL) (hen, UniProt P00698 19-147); test: ELISA, antigen-coated wells, 500 nM gastrobody, detected with polyclonal anti-SBTI antibody
[5] = biological target: T2, combined repetitive oligopeptide domain …; test: ELISA on antigen-coated wells, anti-SBTI antibody detection
[6] = biological target: T1, C. difficile toxin B …; test: SPR, kinetic analysis, biotinylated AviTag-His6-GTD captured on the chip
trypsin = biological target: T3, trypsin (cow, UniProt P00760 24-246); test: plate assay, trypsin-coated wells, bound gastrobody detected with biotinylated GTD and streptavidin-HRP
T3 construct: also called trypsin from cow pancreas (T1426, Merck)

[7] = biological target: T1, C. difficile toxin B …
[8] = biological target: T1, C. difficile toxin B …; test: SPR, GTD

B1: anti-GTD gastrobody GT47 (designed binder, not shown: small tags and cut ends)
chain: DFVLDNEGNPLENGGTYYILSDYGRQLFGGIRAAPTGNERCPLTVVQSLFRNHRDKGIGTIISSPYRIRFIAEGHPLSLKFDSFAVIMLCVGIPTEWSVVEDLPEGPAVKIGENKDAMDGWFRLERVRPTSSTGNNYKLVFCPQQAEDDKCGDIGISIDHDDGTRRLVVSKNKPLVVQFQKLDKESL
[1]
  fold improvement of affinity against GT01: ~8 fold
[2]
  Kd: 10.3 nM
  koff: 0.022 s⁻¹
  kon: 2.1e+06 M⁻¹ s⁻¹

B2: anti-CROP gastrobody G9 (designed binder, not shown: small tags and cut ends)
chain: DFVLDNEGNPLENGGTYYILSHPDLFGGIRAAPTGNERCPLTVVQSLYLFDKGIGTIISSPYRIRFIAEGHPLSLKFDSFAVIMLCVGIPTEWSVVEDLPEGPAVKIGENKDAMDGWFRLERVSDDEFNNYKLVFCPQQAEDDKCGDIGISIDHDDGTRRLVVSKNKPLVVQFQKLDKESL
[3]
  Kd: 4600 nM

B3: anti-CROP gastrobody T42 (designed binder, not shown: small tags and cut ends)
chain: DFVLDNEGNPLENGGTYYILSVPHQFGGIRAAPTGNERCPLTVVQSRNKWDKGIGTIISSPYRIRFIAEGHPLSLKFDSFAVIMLCVGIPTEWSVVEDLPEGPAVKIGENKDAMDGWFRLERVSDDEFNNYKLVFCPQQAEDDKCGDIGISIDHDDGTRRLVVSKNKPLVVQFQKLDKESL
[3]
  Kd: 7300 nM

B4: anti-CROP gastrobody T12 (designed binder, not shown: small tags and cut ends)
chain: DFVLDNEGNPLENGGTYYILSIAGTFGGIRAAPTGNERCPLTVVQSLVFPDKGIGTIISSPYRIRFIAEGHPLSLKFDSFAVIMLCVGIPTEWSVVEDLPEGPAVKIGENKDAMDGWFRLERVSDDEFNNYKLVFCPQQAEDDKCGDIGISIDHDDGTRRLVVSKNKPLVVQFQKLDKESL
notes: also called anti-CROP clone T12; anti-CROP (T12)
[4]
  binding result: no binding (tested: 500 nM gastrobody)
Hen egg lysozyme (HEL)
  binding result: no binding (tested: 500 nM)
[3]
  Kd: 1700 nM

B5: anti-CROP gastrobody G22 (designed binder, not shown: small tags and cut ends)
chain: DFVLDNEGNPLENGGTYYILSLQNRFGGIRAAPTGNERCPLTVVQSHDFMDKGIGTIISSPYRIRFIAEGHPLSLKFDSFAVIMLCVGIPTEWSVVEDLPEGPAVKIGENKDAMDGWFRLERVSDDEFNNYKLVFCPQQAEDDKCGDIGISIDHDDGTRRLVVSKNKPLVVQFQKLDKESL
[3]
  Kd: ~50000 nM

B6: anti-GTD gastrobody GT01 (designed binder, not shown: small tags and cut ends)
chain: DFVLDNEGNPLENGGTYYILSDYGRQLFGGIRAAPTGNERCPLTVVQSLFRNHRDKGIGTIISSPYRIRFIAEGHPLSLKFDSFAVIMLCVGIPTEWSVVEDLPEGPAVKIGENKDAMDGWFRLERVSDDEFNNYKLVFCPQQAEDDKCGDIGISIDHDDGTRRLVVSKNKPLVVQFQKLDKESL
notes: also called anti-GTD (GT01); His6-Thrombin site-SpyTag003-GT01
[5]
  binding result: no binding (tested: 500 nM gastrobody)
[6]
  Kd: 85 nM
  koff: 0.036 s⁻¹
  kon: 420000 M⁻¹ s⁻¹
trypsin
  EC50 (read off the curve): ~20 nM
Hen egg lysozyme (HEL)
  binding result: no binding (tested: 500 nM)
[7]
  EC50 (read off the curve): ~7 nM

B7: anti-GTD gastrobody GT44 (designed binder, not shown: small tags and cut ends)
chain: DFVLDNEGNPLENGGTYYILSDYGRQLFGGIRAAPTGNERCPLTVVQSLFRNHRDKGIGTIISSPYRIRFIAEGHPLSLKFDSFAVIMLCVGIPTEWSVVEDLPEGPAVKIGENKDAMDGWFRLERVNPSNGNNYKLVFCPQQAEDDKCGDIGISIDHDDGTRRLVVSKNKPLVVQFQKLDKESL
[2]
  Kd: 17.4 nM
  koff: 0.022 s⁻¹
  kon: 1.3e+06 M⁻¹ s⁻¹

B8: GT01 R63A (designed binder, not shown: small tags and cut ends)
chain: DFVLDNEGNPLENGGTYYILSDYGRQLFGGIRAAPTGNERCPLTVVQSLFRNHRDKGIGTIISSPYAIRFIAEGHPLSLKFDSFAVIMLCVGIPTEWSVVEDLPEGPAVKIGENKDAMDGWFRLERVSDDEFNNYKLVFCPQQAEDDKCGDIGISIDHDDGTRRLVVSKNKPLVVQFQKLDKESL
trypsin
  binding result: no binding (tested: 200 nM)
[8]
  Kd: 78.7 nM
